Values of other authors, collected in patent publication US6329011A, “Antimicrobial agent against acid-resistant and heat-resistant bacteria” (Director General of Shikoku National Agricultural …, priority 2000, dated 2001).

Legend:
[1] = system: trypsin
[2] = system: guinea pigs; conditions: one oral administration, 103 to 229 mg/kg body weight, observation for 7 days
[3] = heated under acidic conditions at 100° C. for 10 min.

thionin
degradation by digestive enzymes such as trypsin [1]: degraded rapidly | abnormalities after oral administration [2]: did not result in detection of any abnormalities | antimicrobial activity after heating [3]: does not lose antimicrobial activity
